According to the nanobody polyreactivity screen of Harvey et al. (2022):

Test: yeast display, Sf9 membrane polyspecificity reagent, FACS + sequencing; frameworks hold sequencing errors
How it was run: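 Using colony PCR, genes from sorted yeast display clones were amplified, then sequenced on MiSeq at 2 × 250 and filtered by CDR length. The clones had been stained with 10% biotinylated, detergent-solubilized Sf9 membrane reagent for 1 hour at 4 °C and sorted by FACS into low and high (top ~1%) gates on anti-HA and streptavidin fluorescence. Polyreactivity labels come from the gate of origin.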

Sequence | polyreactivity (PSR sort gate)
QVQLVESGGGLVQAGGSLRLSCAASGSTFNYYTMGWYRQEPGKETELVAAISGRVSITYYADSVKGRFTISRDNAKNTVYLQMISLKPEDTAVYYCAAGPGYVRYPRSGVWYVTLYDYWGQGSQVTVSS | high polyreactivity
QVQLVESGGGLVQAGGSLRLSCAASGSTFPDYAMGWYRQAPGKERELVAAISGDSDDTYYADSVKGRFTISRDNAKNTVYLQMNSLKPEDTAVYYCAARRGRAVYSVAYDYWGQATQVTVSS | high polyreactivity
QVQLVESGGGLVQAGGSLRLSCAASGSTFPDYAMGWYRQAPGKERELVAAISRRGVRTYYADSVKGRFTISRDNAKNTVYLQMNSLKPEDTAVYYCAAPSLLSGSDMDYWGQGTQVTVSS | high polyreactivity
QVQLVESGGGLVQAGGSLRLSCAASGSTFPDYAMGWYRQAPGKERELVAAISWSGGSTYYADSVKGRFTISRDNAKNTVYLQMNSLKPEDTAVYYCAAGYSPPKPYSGGYYYWGQGTQVTVSS | low polyreactivity
QVQLVESGGGLVQAGGSLRLSCAASGSTFPEYAMGWYRQAPGKERELVATISWSGGSTDYADSVKGRITISRDNAKNTVYLQMNSLKPEDTAVYYCNKELIPHFDTRESWGQGTQVSVSS | low polyreactivity
QVQLVESGGGLVQAGGSLRLSCAASGSTFPFYAMGWYRQAPGKERELVAAIPSGGSTYADSVKGRFTISRDNAKNTVYLQMNSLKPEDTAVYYCAASWPRWWRFGYWGQGTQVTVSS | low polyreactivity
QVQLVESGGGLVQAGGSLRLSCAASGSTFPFYAMGWYRQAPGKERELVAAITSGGSTYADSVKGRFTISRDNAKNTVYLQMNSLKPEDTAVYYCAASWPRWCRFGYWGQGTQVTVSS | low polyreactivity
QVQLVESGGGLVQAGGSLRLSCAASGSTFPFYAMGWYRQAPGKERELVATISSDGSTNYADSVKGRFTISRDNAKNTVYLQMNSLKPEDTAVYYCNALARWWAYYDYGYWGQGTQVTVSS | low polyreactivity
QVQLVESGGGLVQAGGSLRLSCAASGSTFPGNAMGWYRPAPGKERELVARINDGADTNYADSVKGRFTISRDNAKNTVYLQMNSLKPEDTAVYYCAKPYYDGRTHFDSWGQGTQVTVSS | low polyreactivity
QVQLVESGGGLVQAGGSLRLSCAASGSTFPGNAMGWYRQAPGKEREFVAVISRSGGGTYYADSVKGRFTISRDNAKNTVYLQMNSLKPEDTAVYYCAARRGLWGYGTGNGYWGQGTQVTVSS | low polyreactivity
QVQLVESGGGLVQAGGSLRLSCAASGSTFPGNAMGWYRQAPGKERELVASIRRSGGSTYYADSVKGRFTISRDNAKNTVYLQMNSLKPADTAVDDCAKRTFLVSGPRSYGCYGVYYWGQGTQVTVSS | high polyreactivity
QVQLVESGGGLVQAGGSLRLSCAASGSTFPGNAMGWYRQAPGKERELVASIRRSGGSTYYADSVKGRFTISRDNAKNTVYLQMNSLKPEDTAVYYCAKRTFLVSGPRSYGCYGVYYWGQGTQVTVSS | high polyreactivity
QVQLVESGGGLVQAGGSLRLSCAASGSTFPGYAMGWYRQAPGKERELVAAGGSTYYADSVKGRFTISRDNAKNTVYFQMNSLKPEDTAGYYCAATWGSVQKGTYYYWGQGTQVTVSS | low polyreactivity
QVQLVESGGGLVQAGGSLRLSCAASGSTFPGYAMGWYRQAPGKERELVAAISKRGGSTRYADSVKGRFTISRDNAKNTVYLQMNSLKPEDTAVYYCNNRSQISHYRRHDYWGQGTQVTVSS | high polyreactivity
QVQLVESGGGLVQAGGSLRLSCAASGSTFPKYAMGWYRQAPGKERELVAAISWSGDSTYYADSVKGRFTISRDNAKNSVYLQMNSLNPEDTAVYYCAAYNFIHAGPWEYDYWGQGTQVSVSS | low polyreactivity
QVQLVESGGGLVQAGGSLRLSCAASGSTFPLNVMGWYRQAPGKERELVAAISSSGGRTYYADSVKGRFTISRDNAKNTVYLQMNSLKPEDTAVYYCNARWRKNLSGRVFRYDYWGQGTQVTVSS | high polyreactivity
QVQLVESGGGLVQAGGSLRLSCAASGSTFPLYAMGWYRQAAGKEWELVAAITSGGGNTYYADSVKGRFTISRDNAKNTVYLQMNSLKPEDTAVYYCAAVGGYKSYYSYEYDYWGQGTQETVSS | low polyreactivity
QVQLVESGGGLVQAGGSLRLSCAASGSTFPLYAMGWYRQAPGKEREFVAAIRWIGGSTYYADSVKGRFTISRDNAKNTVYLQMNSLKPEDTAVYYCAADYVVSAFDYWGQGTQVTVSS | low polyreactivity
QVQLVESGGGLVQAGGSLRLSCAASGSTFPLYVMGWYRQAPGKERELVAAIDWSGGSTYYADSVKGRFTISRDTAKNTVYLQMNSLKPEDTAVYYCAADSPNSWRMDYWGQGTQVTVSS | low polyreactivity
QVQLVESGGGLVQAGGSLRLSCAASGSTFPPNAMGWYRQAPGKERELVADSSDSSTYYADSVKGRFTISRDNAKNTVYLQMNSLKPEDNAVYYCAAADAGLRSKSYGQQYDYWGQGTQVTVSS | low polyreactivity

Sequence | polyreactivity (PSR sort gate)
QVQLVESGGGLVQAGGSLRLSCAASGSTFPPNPMGWYRKATGKERELVSSIRRGGSTHYADSVKGRFTISRDNEKNTVYLQMNSLKPEDTAVYYCAKDVWRHYLNLYDYWGQGTQVTVSS | low polyreactivity
QVQLVESGGGLVQAGGSLRLSCAASGSTFPPYAMGWYRKATGNERELVADISSGVSTNYADSVNGRFTISRDNAKNTVYLQMHSLKPEDTAVYYCAADVYHYEWWYFSEFDYWGLGTQVTVSS | low polyreactivity
QVQLVESGGGLVQAGGSLRLSCAASGSTFPPYAMGWYRQAPGKERELVADITRRGASTYYADSVKGRFTISRDNAKNTDYLQMNSLKPEDTAVYYFAAGPYVGQRWYRYNYDYWGQGTQVTVSS | high polyreactivity
QVQLVESGGGLVQAGGSLRLSCAASGSTFPRNAMGWYRQAPGKERELVAAISYSGGRTYYADSVKGRFTISRDNAKNTVYLQMNSLKPEDTAVYYCAAQPYSHVRGKSYGYWGQGTQVTVSS | high polyreactivity
QVQLVESGGGLVQAGGSLRLSCAASGSTFPRYAMGWYRQAPGKERELVAAISSSGRTYYADSVKGRFTISRDNAKNTVYLQMNSLKPEDTAVYYCNAPVARGEASYYWGQGTQVTVSS | high polyreactivity
QVQLVESGGGLVQAGGSLRLSCAASGSTFPSYAMGWYRQAPGKERELVAAINRSGGSTYYADSVKGRFTISRDNAKNTVYLQMNSLKPEYTAVYYCATGLTTGGGYYWGQGTQVTVSS | high polyreactivity
QVQLVESGGGLVQAGGSLRLSCAASGSTFPSYAMGWYRQAPGKERELVAAINSGGGTNYADSVKGRFTISRDNAKNTVYLQINSLKPEDTAVFYCAKSRYDYTKTEGVYWGQGTQVTVSS | low polyreactivity
QVQLVESGGGLVQAGGSLRLSCAASGSTFPSYAMGWYRQAPGKERELVAVITSGGRTYYADSVKGRFTISRDNAKNTVYLQMNSLKPEDTAVYYCAARGHRGYQGYDYWGQGTPVTVSS | high polyreactivity
QVQLVESGGGLVQAGGSLRLSCAASGSTFPSYTMGWYRQAPGKERELVAAITLSGGSTYYADSVNGRFTISRDNAKYTVYLQMNSLKPSDTAVYYCAAYSQRGYYWGQGTQVTVSS | low polyreactivity
QVQLVESGGGLVQAGGSLRLSCAASGSTFPTYAMGWYRQAPGKERELVAAITRGGRTYYADSVKGRFTISRDNAKNTVYLQMNSLKPEDTAVYYCAAVYYGAAQYNYWGQGTQVTVSS | high polyreactivity
QVQLVESGGGLVQAGGSLRLSCAASGSTFPVYAMGWYRQAPGKERELVAAISRSGASTYYADSVKGRFTISRDNAKNTVYLQMNSLKPEDTAVYYCARGYQGRLKYEYWGQGTQVTVSS | low polyreactivity
QVQLVESGGGLVQAGGSLRLSCAASGSTFPVYAMGWYRQAPGKERELVASLSSGAETNYADSVKGRFTISRDNAKNTVYLQLISLTPEDTAVYYCAATVPLRTIRPRSYGYWGQGTQVTVSS | low polyreactivity
QVQLVESGGGLVQAGGSLRLSCAASGSTFPWNAMGWYRPAPGKERELVAAISSGGSTNYADSVKGRFTISRDNAKNTVYLQMNSLKPEDTAVYYCNAYYWSDSRGKYDYWGQGTQVTVSS | low polyreactivity
QVQLVESGGGLVQAGGSLRLSCAASGSTFPWNAMGWYRQAPGKERELVAAINYGNGSTYYADSVKGRFTISRDNAKNTVYLQMNSLKPEDTAVYYCNADYTGTRTDSVTPEYEYCGQGTQVTVSS | low polyreactivity
QVQLVESGGGLVQAGGSLRLSCAASGSTFPWNAMGWYSQAPGKEREMVAAINYGNGSTYYADSVKGRFTISRDNAKNTVYLQMNSLKPEDTAVYYCNADYTGTRTDSVSPEYEYWGQGTQVTVSS | low polyreactivity
QVQLVESGGGLVQAGGSLRLSCAASGSTFPYNAMGSYRQAPGKERELVAAISSSGGRTYYADSVKGRFTISRDTAKNTVYLQMNSLKPEDTAVYYCNAAYYYTYGYWGQGTQVTVSS | high polyreactivity
QVQLVESGGGLVQAGGSLRLSCAASGSTFPYNAMGWYRPAPGKERELVAAISSGGITYYADSVKGRFTISRDNAKNTVYLQMNSLIPEDTAVYYCAATVLGDYEYWGQGTQVTVSS | low polyreactivity
QVQLVESGGGLVQAGGSLRLSCAASGSTFPYNAMGWYRQAPGKERELLAAISWRGGRTYYADSVKGRFTISRDNAKNTVYLQMNSLKPEYTGVFYCAVVLSTYSYADYDYWGQGTHVTVSS | high polyreactivity
QVQLVESGGGLVQAGGSLRLSCAASGSTFPYPYTMGWYRQAPGKERELVAVNSRTGGSTFYADSVKGRFTISRDNAKNTVYFQMNSLKPEDTAVYYCAARRDGWTFWKYDYWGQGTQVTVSS | high polyreactivity
QVQLVESGGGLVQAGGSLRLSCAASGSTFPYYAMGWYRQAPGKEREFVAAISSSGGSTYYADSVKWRFTISRDNAKNTVYLQMNSLKPEDTAVYYCAAQGARRNYYRYGTYTNRRYDYWGQGTQVTVSS | high polyreactivity
